B1: T24 site (dsDNA)
DNA 1: TAGACAAACCACAACTCTT
DNA 2: AAGAGTTGTGGTTTGTCTA
B2: T26 site (dsDNA)
DNA 1: TGGTAGACCTTAGGGCTA
DNA 2: TAGCCCTAAGGTCTACCA

What was measured:
[1] = system: TALER10 (synthetic); assay: cell_activity; settings: for activity (mKate2/TagBFP): cognate 0.00
[2] = system: TALER9 (synthetic); assay: cell_activity; settings: for activity (mKate2/TagBFP): cognate 0.01
[3] = system: TALER5 (synthetic); assay: cell_activity
[4] = target: T1, TALER24 (synthetic, UniProt P14727 SEQ:1-806); assay: cell_activity; HEK293, two sites flanking CMVmini; settings: tags: EYFP-2A upstream, SV40 NLS
T1 chain: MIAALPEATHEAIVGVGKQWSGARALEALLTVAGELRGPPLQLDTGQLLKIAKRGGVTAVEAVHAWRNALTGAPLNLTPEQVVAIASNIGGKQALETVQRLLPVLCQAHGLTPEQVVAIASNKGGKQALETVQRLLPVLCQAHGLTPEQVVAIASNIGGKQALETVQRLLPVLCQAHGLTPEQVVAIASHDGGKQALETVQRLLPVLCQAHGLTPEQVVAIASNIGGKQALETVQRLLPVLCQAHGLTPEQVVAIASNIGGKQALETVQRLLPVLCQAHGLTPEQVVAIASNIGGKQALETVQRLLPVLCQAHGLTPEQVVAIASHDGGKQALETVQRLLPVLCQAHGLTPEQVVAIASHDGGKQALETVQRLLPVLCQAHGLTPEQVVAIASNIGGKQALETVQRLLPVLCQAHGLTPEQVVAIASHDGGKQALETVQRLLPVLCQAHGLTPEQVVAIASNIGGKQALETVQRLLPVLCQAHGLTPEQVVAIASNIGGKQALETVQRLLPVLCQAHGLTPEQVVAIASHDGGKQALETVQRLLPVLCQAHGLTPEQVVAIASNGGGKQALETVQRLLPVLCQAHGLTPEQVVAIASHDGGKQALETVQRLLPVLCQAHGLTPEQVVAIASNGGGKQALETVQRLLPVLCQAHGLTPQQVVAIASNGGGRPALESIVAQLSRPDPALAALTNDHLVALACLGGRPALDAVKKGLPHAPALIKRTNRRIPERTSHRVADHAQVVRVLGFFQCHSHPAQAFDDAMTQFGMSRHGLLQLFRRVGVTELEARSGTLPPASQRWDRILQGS

[5] = target: T2, TALER26 (synthetic, UniProt P14727 SEQ:263-1244); assay: cell_activity; HEK293, two sites flanking CMVmini; settings: tags: EYFP-2A upstream, SV40 NLS
T2 chain: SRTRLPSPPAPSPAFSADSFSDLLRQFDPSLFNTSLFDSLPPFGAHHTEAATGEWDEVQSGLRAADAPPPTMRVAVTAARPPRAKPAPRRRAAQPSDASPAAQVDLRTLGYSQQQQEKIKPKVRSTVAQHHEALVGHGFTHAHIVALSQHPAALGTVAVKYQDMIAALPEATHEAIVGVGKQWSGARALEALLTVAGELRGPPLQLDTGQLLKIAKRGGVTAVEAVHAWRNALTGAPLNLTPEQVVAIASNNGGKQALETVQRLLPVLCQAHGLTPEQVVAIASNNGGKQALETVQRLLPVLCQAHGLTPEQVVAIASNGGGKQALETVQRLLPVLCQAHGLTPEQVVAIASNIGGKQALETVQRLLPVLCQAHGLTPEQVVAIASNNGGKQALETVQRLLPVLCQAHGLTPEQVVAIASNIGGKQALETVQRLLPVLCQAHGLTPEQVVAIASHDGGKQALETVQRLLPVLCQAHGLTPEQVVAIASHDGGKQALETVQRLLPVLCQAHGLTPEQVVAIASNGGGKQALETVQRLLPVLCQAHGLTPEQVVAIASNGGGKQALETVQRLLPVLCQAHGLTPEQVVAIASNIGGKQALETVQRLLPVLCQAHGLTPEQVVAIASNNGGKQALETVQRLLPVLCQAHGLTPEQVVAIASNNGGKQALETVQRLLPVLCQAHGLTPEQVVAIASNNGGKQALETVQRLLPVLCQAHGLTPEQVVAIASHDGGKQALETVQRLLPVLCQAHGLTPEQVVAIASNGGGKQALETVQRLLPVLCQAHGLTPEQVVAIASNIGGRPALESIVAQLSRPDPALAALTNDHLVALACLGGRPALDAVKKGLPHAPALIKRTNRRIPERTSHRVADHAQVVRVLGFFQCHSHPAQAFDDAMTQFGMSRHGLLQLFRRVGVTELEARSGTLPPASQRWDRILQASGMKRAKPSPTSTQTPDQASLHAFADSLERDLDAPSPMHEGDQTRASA

[6] = HEK293, two sites flanking CMVmini

| Molecule | activity (mKate2/TagBFP) [2] | activity (mKate2/TagBFP) [1] | further results |
| --- | --- | --- | --- |
| TACCTCATCAGGAACATGTT (double strand) [T10 site] | 2.54 | – | binding signal (fold repression) [1, 6]: 1310 |
| TACGACTCACTATA (double strand) [T1 site] | 5.14 | 2.51 | – |
| TTTATTCCCTGACA (double strand) [T35 site] | 2.15 | 1.03 | – |
| TACCCCTCTCCGCTTCT (double strand) [T14 site] | 4.42 | 1.46 | – |
| TCCGCCTCCCTCTC (double strand) [T29 site] | 2.94 | 1.19 | – |
| TATAGAACCGATCCTCCCATT (double strand) [T9 site] | – | 0.84 | binding signal (fold repression) [2, 6]: 636 |
| TGTCGTCTTCTGCACTTAT (double strand) [T21 site] | 2.95 | 1.06 | – |
| TGCCCTCGGCCATCAGAAGGATCTT (double strand) [T16 site] | 3.97 | 1.66 | – |
| TACTGAATAATCAACACT (double strand) [T5 site] | – | – | binding signal (fold repression) [3, 6]: 17.9 |
| TACTGAATAATCAACACTGAATTCTAGGCGTGTACGGTGGGAGGCCTATATAAGCAGAGCTCGTTTAGTGAACCGTCAGATCGCCTCGAGTACTGAATAATCAACACTTACTGAATAATCAACACTTACTGAATAATCAACACT (double strand) [T5-CMVmini-T5x3] | – | – | binding signal (fold repression) ([3]; HEK293, three 3' sites (15.43 with one)): 281 |
| TATTTCGACGCTCATTCT (double strand) [T12 site] | 2.38 | 1.04 | – |
| TCCCGGAAGCCGATGCT (double strand) [T13 site] | 2.17 | 0.93 | – |
| B1 | – | – | binding signal [4]: 10.9 fold repression |
| B2 | – | – | binding signal [5]: 148 fold repression |

Reference: patent US20200071711, “MODULAR CONSTRUCTION OF SYNTHETIC GENE CIRCUITS IN MAMMALIAN CELLS USING MATHEMATICAL MODELING OF CLOSED LOOP TRANSCRIPTIONAL REPRESSORS” (Tsinghua University, published 2020)
